Source: IntAct's records for PubMed 19013460

B1: Thiamine metabolism regulatory protein THI3 (Saccharomyces cerevisiae), Q07471 (parent)
chain: MNSSYTQRYALPKCIAISDYLFHRLNQLNIHTIFGLSGEFSMPLLDKLYNIPNLRWAGNSNELNAAYAADGYSRLKGLGCLITTFGVGELSAINGVAGSYAEHVGILHIVGMPPTSAQTKQLLLHHTLGNGDFTVFHRIASDVACYTTLIIDSELCADEVDKCIKKAWIEQRPVYMGMPVNQVNLPIESARLNTPLDLQLHKNDPDVEKEVISRILSFIYKSQNPAIIVDACTSRQNLIEETKELCNRLKFPVFVTPMGKGTVNETDPQFGGVFTGSISAPEVREVVDFADFIIVIGCMLSEFSTSTFHFQYKTKNCALLYSTSVKLKNATYPDLSIKLLLQKILANLDESKLSYQPSEQPSMMVPRPYPAGNVLLRQEWVWNEISHWFQPGDIIITETGASAFGVNQTRFPVNTLGISQALWGSVGYTMGACLGAEFAVQEINKDKFPATKHRVILFMGDGAFQLTVQELSTIVKWGLTPYIFVMNNQGYSVDRFLHHRSDASYYDIQPWNYLGLLRVFGCTNYETKKIITVGEFRSMISDPNFATNDKIRMIEIMLPPRDVPQALLDRWVVEKEQSKQVQEENENSSAVNTPTPEFQPLLKKNQVGY
partner: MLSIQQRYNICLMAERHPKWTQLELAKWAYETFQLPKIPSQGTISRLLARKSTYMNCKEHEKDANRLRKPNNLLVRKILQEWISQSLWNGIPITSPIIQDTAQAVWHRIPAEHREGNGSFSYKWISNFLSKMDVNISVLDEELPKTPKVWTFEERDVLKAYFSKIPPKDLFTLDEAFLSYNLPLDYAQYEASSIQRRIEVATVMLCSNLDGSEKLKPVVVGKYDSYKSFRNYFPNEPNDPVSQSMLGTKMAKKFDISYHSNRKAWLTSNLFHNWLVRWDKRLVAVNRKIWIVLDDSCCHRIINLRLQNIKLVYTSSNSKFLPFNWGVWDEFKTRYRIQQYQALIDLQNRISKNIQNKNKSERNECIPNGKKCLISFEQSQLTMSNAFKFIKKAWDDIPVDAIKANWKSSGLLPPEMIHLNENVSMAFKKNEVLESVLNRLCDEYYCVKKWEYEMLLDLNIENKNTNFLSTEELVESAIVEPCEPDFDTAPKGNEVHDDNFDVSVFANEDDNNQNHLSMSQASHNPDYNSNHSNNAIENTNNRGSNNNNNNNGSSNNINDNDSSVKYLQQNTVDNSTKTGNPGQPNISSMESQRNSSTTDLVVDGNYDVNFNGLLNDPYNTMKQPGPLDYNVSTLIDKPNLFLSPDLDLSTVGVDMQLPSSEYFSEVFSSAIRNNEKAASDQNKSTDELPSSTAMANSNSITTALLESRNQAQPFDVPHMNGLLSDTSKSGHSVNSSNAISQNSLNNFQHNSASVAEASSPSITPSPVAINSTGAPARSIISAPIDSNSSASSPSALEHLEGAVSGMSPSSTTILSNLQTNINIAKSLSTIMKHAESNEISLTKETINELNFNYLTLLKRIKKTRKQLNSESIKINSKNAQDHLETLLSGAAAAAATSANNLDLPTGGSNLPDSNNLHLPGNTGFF

Variants of: B1
Settings: with pdc2_yeast PDC2, P32896

Variant | effect of a mutation on the interaction
N488D | increasing interaction
